Measured values taken from the supplement of paper PMC9170038.

Test system: K4 kissing-loop RNA reporter
Test: apparent KD of K4 kissing-loop reporter; higher = weaker reporter binding
Conditions: Eterna round: R107
Description: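 RNA-MaP round R107: designed RNA switches with theophylline, tryptophan, arginine or FMN aptamers are transcribed on-chip within common flanks. They are titrated with a labelled K4 kissing-loop RNA reporter in RNA-MaP buffer (100 mM Tris pH 7.5, 80 mM KCl, 4 mM MgCl2), without ligand or with the indicated ligand. Median apparent KD per design.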

[1] = input ligand: theophylline 20 uM
[2] = input ligand: tryptophan 2.4 mM
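Further: bound reporter read as fluorescence of individual clusters on recovered sequencing chips by microscopy, with normalized cluster intensities fitted with a binding model.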

Row | Sequence | apparent KD of K4 kissing-loop reporter (input ligand: FMN 200 uM) [nM] | apparent KD of K4 kissing-loop reporter (input ligand: arginine 13.2 mM) [nM] | apparent KD of K4 kissing-loop reporter (input ligand: none) [nM] | apparent KD of K4 kissing-loop reporter [1] [nM] | apparent KD of K4 kissing-loop reporter [2] [nM]
1 | UGUCAUUGGUCGGCCGCCACUAGGACCGGGUUUUGCCUAGUGAUGUUAGUAUGAACGGCCGCCACUAGGACCGGGACCGAUGACU [KL-SSTryp-B26 #DoubleAptamer] | 468 | 279 | 473 | 377 | 105
2 | AGUGCACUGUCAGGAUAUAUACAGUGAUGUUGUGUAUGUCGGCAAGUCAAAGACUUGCCAUUCUGUGUAGAAGGGACUGUGUACA [#04 K4 FMN B Exclusion] | 544 | 203 | 222 | 202 | 223
3 | GCAGUGAUGUUGCUGAUGUACAGUGGGAUACGAGGACCGGUACGGCCGCCACUCGUACAGAACUUGUUAAUACAUCGAUAGGUGA [XIII] | 702 | 759 | 880 | 837 | 564
4 | AAUAUAUAGUGAAGGAGCGCGAUAAGCAGUGAUGUUGCUUAGUUAUUAGUGUUUAUUUUUACGCAGGUAGGUCGCACUAUAUAUA [JR_ExcArginiB_Sub017] | 115 | 105 | 114 | 101 | 114
5 | UGUACCGAGUGAGGAUAUGUCGUCGAAAGACGAAAUGGAGUGAUGUUCCUUAAACUGCGAAAGCAGACAGAAGGUACUUGGUACU [FmnBS 29 G11+U75] | 144 | 298 | 302 | 312 | 275
6 | UGUCAUUGGUCGGCCGCCACUACAAGGUCAAAGACCAAAGAGUGAUGUUCUUAGACGAAAGUCAGUAGGACCGGGACCGAUGACU [TrypBS 8 #SwitchBubble #K4Middle] | 1050 | 707 | 1320 | 674 | 274
7 | GGUUUAUAGGAGGAUACCAGUACGAAUAAAGUACAUUAAUAGUAGAGUGAUGUUCUAAAGUACCCUUGGCAGCUUAGAGUAAGUU [#18 K4 Theophylline B Exclusion] | 105 | 212 | 148 | 223 | 80.5
8 | UUAGUCUAGAGAGGAUAUCAGUGAUGUUGAUAUCAAGAUCUGAGAUAGAAUUCUAUCUCAGAUCAAUGAGAAGGCUCUAGACAUU [AK1.2 Exc FMN B] | 778 | 151 | 168 | 147 | 143
9 | GGCCGCAAGGCGAGCGCUCCCACUCCGGAAGGAGCGCCCGUAAGGGCAGGUAGGUCGCCGGAGUGAUGUUCCGGUGGAGGGCUCG [#2 Exclusion - Arginine A Attempt #17 (Inspired by Omei)] | 565 | 239 | 547 | 443 | 460
10 | AGAACUGUCUGAGAUACCAGCCAUAGGAGUGAUGUUCCUAGCUCCACAAAGUGGAGCCAUAGCCCUUGGCAGCUCAGACAGUUCA [Omei KL Theo B SS A v7] | 1040 | 763 | 1150 | 771 | 823
11 | AAGCAGUCACUCGACGCCAUCGAAGAUGGGCGAGGACCGGUACGGCCGCCACUCGGAGUGAUGUUCCGAAGACUGCAAAAUAAAA [MatMod 6 - Jieux - Exclusion - Tryptophan A] | 356 | 317 | 384 | 329 | 480
12 | AAAAUAAACCAGUGAUGUUGGUAUCCAGAUACCAGCGACGAAAGUCGCCCUUGGCAGCUGUGGACGUACAAAAUAAGUACGUCCU | 930 | 619 | 894 | 746 | 714
13 | CGGCUCUAUCCUAGUAUUAAGAGGGAGUUGCGAGGACCGGUACGGCCGCCACUCGAAGUAGUUUGGCCAGUGAUGUUGGUCUUAC [Qubeatonza] | 223 | 213 | 129 | 152 | 421
14 | AAUUUAUAUUUAUUCUUUAAAUGUUCAGAAGGAGCGUGAAUUAUCACAGGUAGGUCGCUGAGCUAGUGAUGUUAGCUAUAUACUA [JR_ExcArginiA_Sub007] | 50.3 | 95.3 | 67.7 | 97 | 47.5
15 | UAACGCUGACAGCAACAAUUCGGGCCUGAUACCAGCAAUUUUUCAUGCCCUUGGCAGCAGAGUGAUGUUUUCUGUCUAUUUAGUC [theeternabot_exclusion_KL_Theo_A_23] | 628 | 723 | 864 | 700 | 520
16 | UAAUCACUCGAACUUGCAACUCGAGUGGAACGAGGACCGGUACGGCCGCCACUCGAUAACUUGCAGUGAUGUUGCAAGUAAGAAU [(T)''-(K)'-(T)'-(T1)-(T2)-(K1)-(K2)_Design8] | 333 | 341 | 411 | 411 | 219
17 | UCGCAUUAACCGGAUACCAGCUUAGUGGGAUCUUCAAUCCGACAGAAAGUGAUGUUUUCUAGCCCUUGGCAGCCGAGAUUAUCAC [theeternabot_sameState_KL_Theo_B_50] | 231 | 333 | 331 | 412 | 348
18 | AGUAAUGAGUGAUGUUCAAGUAGUAAGGAUACCAGUAAUUCAAAAUGCCCUUGGCAGCUUAGCGCUACCAAUAGAUGGGUAGUGG [Theophilline A V3 (+6G)] | 243 | 250 | 286 | 297 | 160
19 | UGAUAGGACAGAAGGAGCGGUAGUGAUGUUACCAAAAGAAUAAGGUGUCAAAAGACACCCUGCCAGGUAGGUCGCUGUCCUAUCU | 97.4 | 111 | 90.9 | 123 | 86
20 | AGGUUUUGAUUAGGAUAUGCACUGAGGAGGAGAAUAUAGUGAUGUUAUAUAAGAGGAAUUAGUAGAGUAGAAGGGAUUGAGGUUU [SSFMNB.T] | 248 | 167 | 131 | 124 | 196
21 | UGGAGUUGACGAAAAGUCAACUCCUGAGAAGGAGCGGACGAAAGUCCAGGUAGGUCGCUCACUACCAGUGAUGUUGGUACUUGAA | 276 | 293 | 259 | 428 | 185
22 | UUACCAAGUGAUGUUUGGAAAUAUCCUAGGCAGGAUAUGCGGAAACGCAGAAGGGCCACCUUCUAGUGAAGGAAACUUCGCUAUU [Ex FMN A 3] | 288 | 199 | 272 | 246 | 263
